Data on 29 molecules can be found in US20240116985A1 (published 2024).

Starred links: 1 amine or outer side, 2 acyl side, 3 side chain; linkers in the order of their positions; H or OH if unused. Positions of bridges follow the written chain, without caps; N, C: chain ends. Non-standard residues stand in square brackets, D forms with d. Primed or numbered codes have the meaning given here. PyrS2″ = (S)-3-amino-1-((pent-4-en-1-yloxy)carbonyl)pyrrolidine-3-carboxylic acid (stapling residue), C=CCCCOC(=O)N1CC[C@@](N[*:1])(C(=O)[*:2])C1; PyrS2 = (S)-3-amino-1-((pent-4-en-1-yloxy)carbonyl)pyrrolidine-3-carboxylic acid, C=CCCCOC(=O)N1CC[C@@](N[*:1])(C(=O)[*:2])C1; B5(27) = 2-amino-2-(pent-4-en-1-yl)hept-6-enoic acid (two alkene side-chain arms), C=CCCCC(CCCC=C)(N[*:1])C(=O)[*:2]; MePpzAsn = (S)-2-amino-4-(4-methylpiperazin-1-yl)-4-oxobutanoic acid, CN1CCN(C(=O)C[C@H](N[*:1])C(=O)[*:2])CC1; F2PipNva = (S)-2-amino-5-(4,4-difluoropiperidin-1-yl)pentanoic acid, O=C([C@H](CCCN1CCC(F)(F)CC1)N[*:1])[*:2]; MorphAsn = (S)-2-amino-4-morpholino-4-oxobutanoic acid, O=C(C[C@H](N[*:1])C(=O)[*:2])N1CCOCC1; B5(3) = 2,2-bis(4-pentenyl)glycine (stitching residue), C=CCCCC(CCCC=C)(N[*:1])C(=O)[*:2]; Phe(4-(3-Py)) = N[C@@H](Cc1ccc(-c2cccnc2)cc1)C(=O)O; Nva(5-morpholino) = N[C@@H](CCCN1CCOCC1)C(=O)O; Phe(2-Cl) = N[C@@H](Cc1ccccc1Cl)C(=O)O; Phe(2-OMe) = COc1ccccc1C[C@H](N)C(=O)O; 1Nal = N[C@@H](Cc1cccc2ccccc12)C(=O)O; 2Nal = N[C@@H](Cc1ccc2ccccc2c1)C(=O)O; Phe(2-F) = N[C@@H](Cc1ccccc1F)C(=O)O; Bta = N[C@@H](Cc1csc2ccccc12)C(=O)O; αAllylPro = C=CC[C@@]1(C(=O)O)CCCN1; tBuAla = CC(C)(C)C[C@H](N)C(=O)O; 3Thi = N[C@@H](Cc1ccsc1)C(=O)O; Cha = N[C@@H](CC1CCCCC1)C(=O)O; hSer = N[C@@H](CCO)C(=O)O

T1: B-cat-Halo (beta-catenin HaloTag fusion expressed in HEK293 cells) (UniProt P35222 1-781, HaloTag labelled with HaloTag NanoBRET 618 Ligand)
T1 sequence (looked up): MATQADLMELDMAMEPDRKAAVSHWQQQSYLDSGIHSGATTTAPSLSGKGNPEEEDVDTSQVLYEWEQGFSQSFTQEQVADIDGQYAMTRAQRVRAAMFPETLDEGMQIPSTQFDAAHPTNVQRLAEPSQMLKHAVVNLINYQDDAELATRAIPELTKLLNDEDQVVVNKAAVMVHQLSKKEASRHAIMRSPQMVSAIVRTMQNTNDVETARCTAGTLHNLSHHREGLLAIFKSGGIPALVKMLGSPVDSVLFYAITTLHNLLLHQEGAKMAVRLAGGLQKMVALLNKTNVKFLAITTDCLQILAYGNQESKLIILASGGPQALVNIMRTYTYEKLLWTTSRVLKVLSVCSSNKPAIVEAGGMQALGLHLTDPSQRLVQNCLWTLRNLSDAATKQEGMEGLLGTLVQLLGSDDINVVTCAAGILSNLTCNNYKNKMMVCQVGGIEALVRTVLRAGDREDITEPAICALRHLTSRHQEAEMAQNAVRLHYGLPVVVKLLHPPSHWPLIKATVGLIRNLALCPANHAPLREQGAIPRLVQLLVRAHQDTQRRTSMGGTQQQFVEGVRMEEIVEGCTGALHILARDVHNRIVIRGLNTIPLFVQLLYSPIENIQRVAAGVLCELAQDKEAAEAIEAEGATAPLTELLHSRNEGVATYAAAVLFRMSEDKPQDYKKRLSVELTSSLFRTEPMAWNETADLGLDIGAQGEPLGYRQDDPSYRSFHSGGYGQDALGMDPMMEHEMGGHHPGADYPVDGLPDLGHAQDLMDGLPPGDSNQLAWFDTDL

T2: B-cat-Halo (beta-catenin HaloTag fusion construct expressed in HEK293 cells) (UniProt P35222 1-781)
T2 sequence (looked up): T1 sequence (looked up)

The target of one experiment is T1, B-cat-Halo (beta-catenin HaloTag fusion …). Description: cell-based or functional assay.
On to Ac-[αAllylPro]D[tBuAla][B5(3)]DDAAF[MePpzAsn][PyrS2″][3Thi][Bta]Q-NH2 (staple 1-4, 4-11) [I-1488], for which the “NanoBRET Abs IC50” value was 30.3 µM. With Ac-[αAllylPro]D[tBuAla][B5(27)]DDAAFL[PyrS2][3Thi][Bta][hSer]-NH2 (staple 1-4, 4-11) [I-1499], the “NanoBRET Abs IC50” value was determined as 6.4 µM. Ac-[αAllylPro]D[tBuAla][B5(3)]DD[MePpzAsn]AFL[PyrS2″][3Thi][Bta]Q-NH2 (staple 1-4, 4-11) [I-1484]: the “NanoBRET Abs IC50” value was above 20 µM.

As for Ac-[αAllylPro]D[tBuAla][B5(27)]DDA[F2PipNva]FL[PyrS2][3Thi][Bta]Q-NH2 (staple 1-4, 4-11) [I-1502], the “NanoBRET Abs IC50” value is above 20 µM.

With Ac-[αAllylPro]D[tBuAla][B5(3)]DD[Phe(4-(3-Py))]AFL[PyrS2″]F[Bta]Q-NH2 (staple 1-4, 4-11) [I-1489], the “NanoBRET Abs IC50” value is 9.2 µM.

For Ac-[αAllylPro]D[tBuAla][B5(3)]DDAAF[F2PipNva][PyrS2″][3Thi][Bta]Q-NH2 (staple 1-4, 4-11) [I-1486], the “NanoBRET Abs IC50” value was 17.9 µM. The same measure, in the same setting: the value for Ac-[αAllylPro]D[tBuAla][B5(27)]DDA[Nva(5-morpholino)]FL[PyrS2][3Thi][Bta]Q-NH2 (staple 1-4, 4-11) [I-1501] was above 20 µM; that for Ac-[αAllylPro]D[tBuAla][B5(27)]DDAAFL[PyrS2][3Thi][Bta]S-NH2 (staple 1-4, 4-11) [I-1493] was 4.9 µM. Same read-out and setting: the result for Ac-[αAllylPro]D[tBuAla][B5(27)]DDAAFL[PyrS2][3Thi][Bta]T-NH2 (staple 1-4, 4-11) [I-1494] reads 14.7 µM.

As to Ac-[αAllylPro]D[tBuAla][B5(27)]DDAAFL[PyrS2][3Thi][Bta]V-NH2 (staple 1-4, 4-11) [I-1495], the “NanoBRET Abs IC50” value amounted to 23.9 µM.

As for Ac-[αAllylPro]D[tBuAla][B5(3)]DDAAF[Nva(5-morpholino)][PyrS2″][3Thi][Bta]Q-NH2 (staple 1-4, 4-11) [I-1485], the “NanoBRET Abs IC50” value was 25.8 µM. For the molecule Ac-[αAllylPro]D[tBuAla][B5(3)]DDAAF[MorphAsn][PyrS2″][3Thi][Bta]Q-NH2 (staple 1-4, 4-11) [I-1487], the “NanoBRET Abs IC50” value was determined as 21.5 µM.

Turning to Ac-[αAllylPro]D[tBuAla][B5(3)]DDAAFL[PyrS2″][3Thi][Bta]N-NH2 (staple 1-4, 4-11) [I-1492], the “NanoBRET Abs IC50” value is 7.3 µM. As to Ac-[αAllylPro]D[tBuAla][B5(27)]DDAAFL[PyrS2][3Thi][Bta]F-NH2 (staple 1-4, 4-11) [I-1496], the “NanoBRET Abs IC50” value was determined as 9.4 µM. Same read-out and setting: the value for Ac-[αAllylPro]D[tBuAla][B5(27)]DDAAFL[PyrS2][3Thi][Bta][dQ]-NH2 (staple 1-4, 4-11) [I-1500] was 4.7 µM. Still for that read-out and setting: the result for Ac-[αAllylPro]D[tBuAla][B5(27)]DDAAFL[PyrS2][3Thi][Bta]W-NH2 (staple 1-4, 4-11) [I-1497] reads 11.4 µM.

Another experiment concerns the target T2, B-cat-Halo (beta-catenin HaloTag fusion …). Briefly: cell-based or functional assay.
As to Ac-[αAllylPro]D[tBuAla][B5(3)]DDAAFS[PyrS2″][Cha][Bta]S-NH2 (staple 1-4, 4-11) [I-1106], the “NanoBRET Abs IC50” value was above 20 µM. Still for that read-out and setting: the result for Ac-[αAllylPro]D[1Nal][B5(3)]DDAAFT[PyrS2″][Phe(2-Cl)][Bta]S-NH2 (staple 1-4, 4-11) [I-1114] reads above 20 µM. Same read-out and setting: the result for Ac-[αAllylPro]D[Cha][B5(3)]DDAAFS[PyrS2″][Phe(2-F)][Bta]S-NH2 (staple 1-4, 4-11) [I-1102] reads 27.2 µM; that for Ac-[αAllylPro]D[tBuAla][B5(3)]DDAAFS[PyrS2″][Phe(2-OMe)][Bta]S-NH2 (staple 1-4, 4-11) [I-1103], 16.7 µM; that for Ac-[αAllylPro]D[Cha][B5(3)]DDAAFS[PyrS2″][Phe(2-OMe)][Bta]S-NH2 (staple 1-4, 4-11) [I-1104], 17.7 µM. The same measure, in the same setting: the value for Ac-[αAllylPro]D[1Nal][B5(3)]DDAAFS[PyrS2″][Phe(2-Cl)][Bta]Q-NH2 (staple 1-4, 4-11) [I-1108] was above 20 µM; that for Ac-[αAllylPro]D[tBuAla][B5(3)]DDAA[Cha]S[PyrS2″]F[Bta]S-NH2 (staple 1-4, 4-11) [I-1105] was above 20 µM; that for Ac-[αAllylPro]D[tBuAla][B5(3)]DDAAFS[PyrS2″][Phe(2-F)][Bta]S-NH2 (staple 1-4, 4-11) [I-1101] was 27 µM. Turning to Ac-[αAllylPro]D[Cha][B5(3)]DDAAFS[PyrS2″]F[Bta]S-NH2 (staple 1-4, 4-11) [I-1100], the “NanoBRET Abs IC50” value stood at 24.3 µM. Still for that read-out and setting: the result for Ac-[αAllylPro]D[Cha][B5(3)]DDAAF[Cha][PyrS2″][Phe(2-Cl)][Bta]Q-NH2 (staple 1-4, 4-11) [I-1107] reads 11.8 µM; that for Ac-[αAllylPro]D[2Nal][B5(3)]DDAAFL[PyrS2″][2C1F][Bta]Q-NH2 (staple 1-4, 4-11) [I-1111], above 20 µM.

Regarding Ac-[αAllylPro]D[2Nal][B5(3)]DDAAFS[PyrS2″][Phe(2-Cl)][Bta]Q-NH2 (staple 1-4, 4-11) [I-1109], the “NanoBRET Abs IC50” value was above 20 µM. Turning to Ac-[αAllylPro]D[1Nal][B5(3)]DDAAFL[PyrS2″][Phe(2-Cl)][Bta]Q-NH2 (staple 1-4, 4-11) [I-1110], the “NanoBRET Abs IC50” value is above 20 µM.
